B1: Ubiquitin-conjugating enzyme E2 Z (Homo sapiens), Q9H832 (parent)
chain: MAESPTEEAATAGAGAAGPGASSVAGVVGVSGSGGGFGPPFLPDVWAAAAAAGGAGGPGSGLAPLPGLPPSAAAHGAALLSHWDPTLSSDWDGERTAPQCLLRIKRDIMSIYKEPPPGMFVVPDTVDMTKIHALITGPFDTPYEGGFFLFVFRCPPDYPIHPPRVKLMTTGNNTVRFNPNFYRNGKVCLSILGTWTGPAWSPAQSISSVLISIQSLMTENPYHNEPGFEQERHPGDSKNYNECIRHETIRVAVCDMMEGKCPCPEPLRGVMEKSFLEYYDFYEVACKDRLHLQGQTMQDPFGEKRGHFDYQSLLMRLGLIRQKVLERLHNENAEMDSDSSSSGTETDLHGSLRV

Variants of: B1
Details: with ubd_human UBD

Row | Variant | effect of a mutation on the interaction
1 | MAESPTEEAATAGAGAAGPGASSVAGVVGVSGSGGGFGPPFLPDVWAAAAAAGGAGGPGSGLAPLPGLPPSAAAHGAALLSHWDPTLSSDWDGERTAPQCLLRIKRDIMSIYKEPPPGMFVVPDTVDMTKIHALITGPFDTPYEGGFFLFVFRCPPDYPIHPPRVKLMTTGNNTVRFNPNFYRNGKVCLSILGTWTGPAWSPAQSISSVLISIQSLMTENPYHNEPGFEQERHPGDSKNYNECIRHETIRVAVCDMMEGKCPCPEPLRGVMEKSFLEYYDFYEVACKDRLHLQGQTMQDPFGEKRGHFDYQSLLMRLGLIRQRVLERLHNENAEMDSDSSSSGTETDLHGSLRV [K323R] | decreasing interaction
